In US20150159134A1, “METHOD FOR PRODUCING RETINAL PIGMENT EPITHELIAL CELLS” (PFIZER LIMITED, priority 2013, published 2015):
“Also recorded” adds a separate entry of the source.

Assays:
Format in all cases: cell-based, human
Shef-1 hESCs [1] = experiment: First replating step with supplemented media (immunocytochemistry, qPCR)
From the text: Cells replated at Day 12 were maintained from Day 9 to Day 12 in DMEM KSRXF alone before replating. […] Mature RPE cells sample obtained by spontaneous differentiation as disclosed in Example 10 (a) was used as a control to compare the similarity between the populations obtained upon the first replating step of directed differentiation and mature RPE cells. 19 days post replating, cells were fixed for immunocytochemistry and samples were collected for qPCR. […] QPCR analysis with a panel of markers also indicated Day 9 to be the optimum time for replating (FIGS. 4C, 4D and 4E). Similar results were obtained when cells were cultured on different matrices e.g Matrigel, Cellstart or Fibronectin before and after replate.

[2] = test system: induced pluripotent cells (iPSCs); experiment: Directed differentiation of iPSCs (immunostaining); conditions: following replating at Day 9 in the presence of Activin A
Description: The directed differentiation protocol was performed on induced pluripotent cells (iPSCs). IPSCs were generated from erythroblasts obtained from healthy volunteers and reprogrammed using the CytoTune-iPS Reprogramming kit (Life Technologies, A13780-01/02). IPSCs were seeded in E8 medium at a density of 240000 cells/cm^2 and differentiated to Day 9-19 of the directed differentiation protocol with early replating. Induced cells refer to cells treated with LDN193189/SB-431542 from Day 2 to Day 6 followed by BMP4/7 from Day 6 to Day 9. Uninduced cells are maintained without exposure to both LDN193189/SB-431542 and BMP4/7. Immunostaining was performed for markers of interest. […] Following the second replete step at Day 9-19 and culturing for a period of 45 days, iPSCs derived RPE expressed a panel of RPE markers to similar levels seen in RPE derived by directed differentiation from ES cells as obtained by the protocol of example 8 (see FIGS. 15E, 15F and 15G).

WA26 hESCs = experiment: Duration of exposure to activin A (CRALBP immunostaining); conditions: 100 ng/ml activin A
Description: On Day 9, cells were replated into 96 well CellBind plates coated with Matrigel or Cellstart at a density of 500000 cells/cm^2. The cells were maintained in either DMEM KSRXF alone or DMEM KSRXF supplemented with 100 ng/ml activin A for different lengths of time e.g 3 days, 5 days, 10 days or 18 days. At D9-18, cells were fixed for immunostaining and stained for CRALBP, a marker of RPE cells.

Shef-1 hESCs [3] = experiment: Induction of RPE markers MITF and PMEL17 by BMP pathway activation (qPCR, immunocytochemistry)
Description: This example illustrates the effect of a BMP pathway activator on RPE marker expression. Shef-1 hESCs were seeded onto Matrigel coated 96-well plates at a density of 125000 cells/cm^2. […] Cells for the uninduced control were left untreated. On Day 6, 100 ng/ml BMP4/7 or 100 ng/ml activin A+10 mM Nicotinamide or nothing was added to the media for 3 days. On Day 9, BMP4/7 or activin A and Nicotinamide were withdrawn and cells were treated with DMEM KSRXF alone for 4 days. Samples were prepared for RNA extraction and qPCR analysis.
Immunocytochemistry was carried out in 96-well or 384-well format. Media was aspirated and 50 μL 4% paraformaldehyde (PFA) was added to each well and incubated for 35 minutes at room temperature. PFA was aspirated and cells washed 3×100 uL PBS(+/+). Cells were incubated for 1 hour at room temperature in the dark in blocking buffer (PBS(+/+)/5% normal donkey serum (NDS)/0.3% TritonX100). 1° antibodies were made up in PBS(+/+)/1% normal donkey serum (NDS)/0.3% TritonX100. 60 μL 1° antibody solution was added to each well and incubated for 1 hour at room temperature in the dark. Solution was aspirated and cells washed 3×100 uL PBS(+/+). 2° antibodies were made up in PBS(+/+)/1% normal donkey serum (NDS)/0.3% TritonX100. 60 uL 2° antibody solution was added to each well and incubated for 1 hour at room temperature in the dark. […]

Shef-1 hESCs [4] = experiment: Alternative BMP pathway activators, MITF expression (immunostaining, qPCR); conditions: Day 13; BMPs Day 6-9: 50-200 ng/ml BMP4/7 heterodimer, 200 ng/ml BMP4, 300 ng/ml BMP7, 100 ng/ml BMP2/6
Description: Shef-1 hESCs were seeded onto Matrigel coated 96-well plates at a density of 125000 cells/cm^2. […] On Day 9, BMPs were withdrawn and cells maintained in DMEM KSRXF alone for 4 days. On Day 13, MITF expression was tested by Immunostaining and qPCR analysis.

B1: activin A: activin pathway activator (protein, UniProt P08476 311-426, looked up)
Inhibin beta A chain: GLECDGKVNICCKKQFFVSFKDIGWNDWIIAPSGYHANYCEGECPSHIAGTSGSSLSFHSTVINHYRMRGHSPFANLKSCCVPTKLRPMSMLYYDDGQNIIKKDIQNMIVEECGCS
mature RPE marker expression (CRALBP, MERTK) by immunocytochemistry (Shef-1 hESCs [1]; replating at D9, 100 ng/ml activin A, 19 days post replating): optimum and yielded high levels of RPE marker expression | RPE marker CRALBP expression (immunostaining) [2]: upregulated | induction of RPE cells differentiation / RPE markers by short exposure (WA26 hESCs): sufficient for inducing RPE cells differentiation; also recorded: sufficient to induce expression of RPE markers

B2: BMP4/7: recombinant BMP4/7 heterodimer protein, BMP pathway activator (protein, UniProt P12644 293-408; P18075 293-431, looked up)
Bone morphogenetic protein 4: SPKHHSQRARKKNKNCRRHSLYVDFSDVGWNDWIVAPPGYQAFYCHGDCPFPLADHLNSTNHAIVQTLVNSVNSSIPKACCVPTELSAISMLYLDEYDKVVLKNYQEMVVEGCGCR
Bone morphogenetic protein 7: STGSKQRSQNRSKTPKNQEALRMANVAENSSSDQRQACKKHELYVSFRDLGWQDWIIAPEGYAAYYCEGECAFPLNSYMNATNHAIVQTLVHFINPETVPKPCCAPTQLNAISVLYFDDSSNVILKKYRNMVVRACGCH
modifications: heterodimer
survival of replated cells (Shef-1 hESCs [1]; replated into DMEM KSRXF with 100 ng/ml BMP4/7): did not survive | expression of RPE markers MITF and PMEL17 (immunocytochemistry) (Shef-1 hESCs [3]; LDN193189/SB-431542 followed by BMP4/7): confirmed expression of RPE markers | expression of RPE genes MITF and PMEL17 (qPCR) (Shef-1 hESCs [3]; added Day 6 for 3 days after 4 days LDN193189/SB-431542, 100 ng/ml BMP4/7 or 100 ng/ml activin A+10 mM Nicotinamide, vs uninduced or LDN193189/SB-431542 only controls): induced expression of RPE genes | MITF expression (immunostaining and qPCR) (Shef-1 hESCs [4]): induced expression of MITF to a similar level

B3: BMP4: BMP pathway activator (protein, UniProt P12644 293-408, looked up)
Bone morphogenetic protein 4: B2 Bone morphogenetic protein 4
MITF expression (immunostaining and qPCR) (Shef-1 hESCs [4]): induced expression of MITF to a similar level

B4: BMP7: BMP pathway activator (protein, UniProt P18075 293-431, looked up)
Bone morphogenetic protein 7: B2 Bone morphogenetic protein 7
MITF expression (immunostaining and qPCR) (Shef-1 hESCs [4]): induced expression of MITF to a similar level
